Results reported in the Human Domainome abundance scans (Beltran et al. 2025).
± gives the uncertainty stated by the source.

B1: Zinc finger protein ZIC 2, residues 250 to 295; numbered along this chain, O95409 (parent)
chain: QCIKQELICKWIDPEQLSNPKKSCNKTFSTMHELVTHVSVEHVGGP
B2: Nuclear receptor subfamily 1 group D member 2, residues 103 to 171; numbered along this chain, Q14995 (parent)
chain: CKVCGDVASGFHYGVHACEGCKGFFRRSIQQNIQYKKCLKNENCSIMRMNRNRCQQCRFKKCLSVGMSR

Variants of: B1
Test: abundance fitness (aPCA) (normalised: wild type 0, dead -1); higher = more abundant; growth selection in yeast, the domain comes from the species named
Details: Homo sapiens

Row | Variant | abundance fitness
1 | K4C | -0.411 ± 0.13
2 | K4H | -0.816 ± 0.21
3 | K4G | -0.309 ± 0.089
4 | C2L | 0.73 ± 0.09
5 | C2D | 0.108 ± 0.13
6 | C2E | 0.123 ± 0.12
7 | T36Y | -0.25 ± 0.11
8 | T36M | -0.341 ± 0.1
9 | T36V | -0.38 ± 0.088
10 | T36C | -0.236 ± 0.099
11 | T36D | -0.068 ± 0.1
12 | K10D | 0.018 ± 0.1
13 | K10P | -0.45 ± 0.11
14 | K10Q | 0.205 ± 0.1
15 | K10L | -0.248 ± 0.091
16 | K10C | -0.19 ± 0.11
17 | V40I | -0.01 ± 0.11
18 | V40R | -0.134 ± 0.086
19 | V40H | -0.136 ± 0.13
20 | V40C | -0.457 ± 0.11

Row | Variant | abundance fitness
21 | V40Y | -0.275 ± 0.12
22 | N25L | 0.083 ± 0.088
23 | N25P | 0.199 ± 0.099
24 | N25V | -0.302 ± 0.088
25 | N25R | 0.281 ± 0.088
26 | N25Y | -0.33 ± 0.14
27 | N25F | -0.517 ± 0.13
28 | Q16V | -0.302 ± 0.091
29 | Q16R | -0.432 ± 0.088
30 | Q16E | -0.397 ± 0.1
31 | Q16S | 0.073 ± 0.09
32 | Q16F | -0.376 ± 0.12
33 | P14I | -0.975 ± 0.2
34 | P14G | -0.237 ± 0.085
35 | C24P | -0.889 ± 0.13
36 | C24F | -1.05 ± 0.13
37 | C24L | -0.901 ± 0.1
38 | C24K | -0.979 ± 0.13
39 | C24R | -0.841 ± 0.093

Variants of: B2
Test: as above
Details: Homo sapiens

Row | Variant | abundance fitness
40 | V7T | -0.126 ± 0.11
41 | V7R | 0.032 ± 0.061
42 | V7A | -0.153 ± 0.1
43 | V7S | -0.083 ± 0.075
44 | V7C | -0.526 ± 0.29
45 | V7E | 0.057 ± 0.084
46 | V7D | -0.001 ± 0.15
47 | V7Q | 0.118 ± 0.11
48 | V7P | -0.295 ± 0.12
49 | V7N | -0.019 ± 0.24
50 | V7K | 0.167 ± 0.093
51 | V7F | -0.061 ± 0.17
52 | V7M | -0.032 ± 0.1
53 | V7W | -0.195 ± 0.12
54 | V7L | -0.119 ± 0.075
55 | V7G | -0.469 ± 0.088
56 | D6V | -0.56 ± 0.34
57 | D6E | -0.06 ± 0.21
58 | D6L | -0.572 ± 0.2
59 | D6R | -0.857 ± 0.26
60 | D6T | -0.47 ± 0.11
61 | D6G | -0.535 ± 0.34
62 | D6F | -0.694 ± 0.38
63 | D6M | -0.345 ± 0.17
64 | D6A | 0.04 ± 0.13
65 | D6Q | -0.513 ± 0.2

Row | Variant | abundance fitness
66 | D6Y | -0.445 ± 0.35
67 | D6K | -0.862 ± 0.33
68 | D6S | -0.706 ± 0.45
69 | K2D | -0.482 ± 0.22
70 | K2A | 0.016 ± 0.092
71 | K2I | -0.367 ± 0.16
72 | K2R | -0.029 ± 0.071
73 | K2Q | -0.049 ± 0.14
74 | K2N | -0.011 ± 0.14
75 | K2T | -0.186 ± 0.1
76 | K2L | -0.491 ± 0.12
77 | K2F | -0.53 ± 0.24
78 | K2W | -0.673 ± 0.21
79 | K2M | -0.401 ± 0.2
80 | K2G | -0.623 ± 0.12
81 | K2S | -0.336 ± 0.047
82 | K2Y | -0.7 ± 0.24
83 | K2C | -0.578 ± 0.23
84 | K2V | -0.474 ± 0.1
85 | K2E | -0.174 ± 0.14
86 | V3D | -0.763 ± 0.45
87 | V3R | -1.25 ± 0.45
88 | V3G | -0.738 ± 0.22
89 | V3S | -0.161 ± 0.46
90 | V3A | -0.74 ± 0.33
91 | V3I | -0.293 ± 0.27

Row | Variant | abundance fitness
92 | V3E | -0.754 ± 0.28
93 | V3N | -0.78 ± 0.38
94 | A8Q | -0.842 ± 0.23
95 | A8K | -0.42 ± 0.13
96 | A8L | -0.998 ± 0.17
97 | A8Y | -0.782 ± 0.3
98 | A8M | -0.584 ± 0.14
99 | A8T | -0.363 ± 0.15
100 | A8P | -0.893 ± 0.17
101 | A8N | -0.476 ± 0.29
102 | A8R | -0.897 ± 0.1
103 | A8V | -0.798 ± 0.15
104 | A8S | -0.265 ± 0.073
105 | A8C | -0.494 ± 0.16
106 | A8D | -0.724 ± 0.42
107 | A8G | -0.597 ± 0.08
108 | A8F | -0.855 ± 0.43
109 | Y13L | -0.453 ± 0.078
110 | Y13P | -0.89 ± 0.16
111 | Y13H | -0.145 ± 0.15
112 | Y13S | -0.576 ± 0.071
113 | Y13K | -0.491 ± 0.1
114 | Y13E | -0.099 ± 0.093
115 | Y13A | -0.459 ± 0.09
116 | Y13F | 0.059 ± 0.089
117 | Y13Q | -0.615 ± 0.13

Row | Variant | abundance fitness
118 | Y13C | -0.496 ± 0.1
119 | Y13M | -0.732 ± 0.16
120 | Y13I | -0.73 ± 0.12
121 | G10D | -0.433 ± 0.22
122 | G10V | -0.119 ± 0.38
123 | S9Y | -0.49 ± 0.4
124 | H12R | -0.732 ± 0.13
125 | H12F | -0.514 ± 0.16
126 | H12D | -0.44 ± 0.13
127 | H12Y | -0.253 ± 0.12
128 | H12I | -0.747 ± 0.33
129 | H12N | -0.161 ± 0.17
130 | H12S | -0.301 ± 0.077
131 | H12W | 0.033 ± 0.08
132 | H12Q | -0.568 ± 0.2
133 | H12G | -0.421 ± 0.075
134 | H12P | -0.835 ± 0.22
135 | H12M | -0.936 ± 0.28
136 | H12A | -0.28 ± 0.081
137 | H12E | -0.587 ± 0.2
138 | H12T | -0.546 ± 0.15
139 | C1F | -0.451 ± 0.32
140 | C1E | -0.613 ± 0.48
141 | C1G | -0.939 ± 0.26
142 | G5M | -0.226 ± 0.11
143 | G5D | -0.645 ± 0.18

Row | Variant | abundance fitness
144 | G5P | -0.598 ± 0.11
145 | G5R | -0.824 ± 0.083
146 | G5C | -0.769 ± 0.18
147 | G5H | -0.623 ± 0.18
148 | G5L | -0.787 ± 0.1
149 | G5Y | -1.11 ± 0.31
150 | G5I | -0.83 ± 0.25
151 | G5K | -0.5 ± 0.11
152 | G5V | -0.815 ± 0.11
153 | G5T | -0.802 ± 0.13
154 | G5A | -0.621 ± 0.1
155 | G5S | -0.689 ± 0.097
156 | G5E | -0.605 ± 0.13
157 | G5W | -0.684 ± 0.089
158 | G5Q | -0.476 ± 0.1
159 | G5F | -0.918 ± 0.2
160 | C4A | -0.949 ± 0.26
161 | C4S | -0.819 ± 0.21
162 | C4G | -0.795 ± 0.19
163 | C4L | -0.902 ± 0.17
164 | C4T | -0.599 ± 0.27
165 | C4E | -0.687 ± 0.26
166 | C4V | -0.941 ± 0.26
167 | C4W | -0.83 ± 0.3
